Data from US20090298761A1 (MARIEL THERAPEUTICS, published 2009).

Experiments:
[1] = target: T1, OP-1 pro domain, truncated form (human, UniProt P18075 48-292); experiment: reverse phase C18 HPLC separation of the purified soluble complex into pro domain and mature species, then N-terminal sequencing
T1 construct: also called truncated form of the pro region (beginning at residue 48); 48-292 truncated form
Excerpt: The complex components can be verified by running the complex-containing fraction from the S-200 or S-200HR columns over a reverse phase C18 HPLC column and eluting in an acetonitrile gradient (in 0.1% TFA), using standard procedures. The complex is dissociated by this step, and the pro domain and mature species elute as separate species. These separate species then can be subjected to N-terminal sequencing using standard procedures (see, for example, Guide to Protein Purification, M. Deutscher, ed., Academic Press, San Diego, 1990, particularly pp. 602-613), and the identity of the isolated 36 kD, 39 kDa proteins confirmed as mature morphogenic protein and isolated, cleaved pro domain, respectively.

[2] = target: T2, OP-1 pro domain, intact form (human, UniProt P18075 30-292); experiment: gel filtration (Sephacryl S-200HR in TBS) of soluble OP-1 complex purified from CHO conditioned media without denaturants; complex elutes at an apparent 110 kDa
T2 construct: Cleaved pro domain of 39 kDa; also called pro region; full length pro region (residues 30-292)
T2 sequence (P18075 30-292): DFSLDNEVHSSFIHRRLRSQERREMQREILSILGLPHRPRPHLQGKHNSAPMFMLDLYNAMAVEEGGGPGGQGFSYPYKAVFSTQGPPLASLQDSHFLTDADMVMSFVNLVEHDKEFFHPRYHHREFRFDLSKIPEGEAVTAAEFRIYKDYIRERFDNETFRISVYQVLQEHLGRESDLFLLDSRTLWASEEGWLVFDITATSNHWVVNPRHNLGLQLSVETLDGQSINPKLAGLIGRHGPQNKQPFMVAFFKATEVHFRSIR
Experimental: The 50 mM imidazole eluate containing the soluble OP-1 complex was diluted with nine volumes of 20 mM NaPO₄ (pH 7.0) and applied to an S-Sepharose (Pharmacia) column equilibrated in 20 mM NaPO₄ (pH 7.0) with 50 mM NaCl. The S-Sepharose resin was loaded with an equivalent of 800 mL of starting conditioned media per mL of resin. After loading the S-Sepharose column was washed with equilibration buffer and eluted with 100 mM NaCl followed by 300 mM and 500 mM NaCl in 20 mM NaPO₄ (pH 7.0). The 300 mM NaCl pool was further purified using gel filtration chromatography. Fifty mls of the 300 mm NaCl eluate was applied to a 5.0×90 cm Sephacryl S-200HR (Pharmacia) equilibrated in Tris buffered saline (TBS), 50 mM Tris, 150 mM NaCl (pH 7.4). […] The apparent molecular of the soluble OP-1 was determined by comparison to protein molecular weight standards (alcohol dehydrogenase (ADH, 150 kDa), bovine serum albumin (BSA, 68 kDa), carbonic anhydrase (CA, 30 kDa) and cytochrome C (cyt C, 12.5 kDa) (see FIG. 3). The purity of the S-200 column fractions was determined by separation on standard 15% polyacrylamide SDS gels stained with coomassie blue. The identity of the mature OP-1 and the pro-domain was determined by N-terminal sequence analysis after separation of the mature OP-1 from the pro-domain using standard reverse phase C18 HPLC.

T1 sequence (P18075 48-292): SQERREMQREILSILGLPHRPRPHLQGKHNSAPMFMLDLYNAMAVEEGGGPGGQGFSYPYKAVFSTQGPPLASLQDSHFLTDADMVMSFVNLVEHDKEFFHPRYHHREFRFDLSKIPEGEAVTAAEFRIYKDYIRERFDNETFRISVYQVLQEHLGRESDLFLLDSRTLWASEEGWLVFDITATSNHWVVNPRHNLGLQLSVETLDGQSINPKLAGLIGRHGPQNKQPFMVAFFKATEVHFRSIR

binding result [1]: binds | binding result [2]: binds
B1: mature OP-1 dimer (ligand)
chain: STGSKQRSQNRSKTPKNQEALRMANVAENSSSDQRQACKKHELYVSFRDLGWQDWIIAPEGYAAYYCEGECAFPLNSYMNATNHAIVQTLVHFINPETVPKPCCAPTQLNAISVLYFDDSSNVILKKYRNMVVRACGCH
notes: Expressed in CHO cells and purified as part of the soluble OP-1 complex; The dimer runs at 35-36 kDa; also called BMP-7; osteogenic protein-1
